Patent US10925971B2, “Methods of treating PRLR positive breast cancer” (Regeneron Pharmaceuticals, Inc., priority 2016, dated 2021)
Like-named read-outs stand apart in the source and are kept apart here.

Legend:
PC3/PRLR tumors = test: PC3/PRLR xenograft, tumor size and tumor growth inhibition; type: in vivo, SCID mice; settings: for Average Tumor Growth Inhibition (%) / Final Tumor size mm^3 (mean ± SEM): SCID mice
Method in brief: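 MCF7/PRLR cells in mammary fat pad of female NCr nude mice, PC3/PRLR in flank of male SCID, T47D #11 in flank of female CB17 SCID, all with estrogen pellets.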

T47D#11 tumors = type: in vivo, CB17 SCID mice; settings: for Average Tumor Growth Inhibition (%) / Final Tumor size mm^3 (mean ± SEM): T47D#11 tumors, SCID mice, Day 66
Description: Briefly, 20×10^6 MCF7/PRLR cells (ATCC HTB-22 transfected with full length hPRLR as previously described) were implanted subcutaneously into the left mammary fat pad of female NCr nude mice. In other studies, 10×10^6 PC3/PRLR (ATCC CRL-1435 transfected with full length hPRLR as previously described) were implanted subcutaneously into the left flank of male SCID mice. Additionally, 10×10^6 parental T47D (ATCC HTB-133) or 7.5×10^10 T47D #11 cells (ATCC HTB-133 serially passaged in vivo as described below) were subcutaneously implanted into the left flank of female CB17 SCID mice. All mice were obtained from Taconic (Hudson, N.Y.). Each bolus of cells was supplemented with a 90-day estrogen release pellet (1.7 mg/pellet; Innovative Research America, Sarasota Fla.). […] Control reagents included PBS vehicle, free methyl-disulfide DM1 (DM1-SMe) and isotype Control 1-DM1.
In multi-dose studies, mice were dosed once a week for a total of three weeks with tumor volumes and body weights being monitored twice weekly throughout the study. Test ADCs were dosed at 5 and/or 15 mg/kg in the multi-dose studies. In single-dose studies, mice received a single dose of test ADC, and tumor volumes and body weights were monitored twice weekly throughout the study. Test ADCs were dosed at 1, 2.5, 5, and 15 mg/kg in the single-dose studies. Average tumor size as well as tumor growth inhibition relative to the vehicle treated group were calculated for each group. Tumors were measured with calipers twice a week until the average size of the vehicle group reached 1000 mm^3. Tumor size was calculated using the formula (length×width^2)/2. Tumor growth inhibition was calculated according to the following formula: (1−((Tfinal−Tinitial)/(Cfinal−Cinitial)))*100, where T (treated group) and C (control group) represent the mean tumor mass on the day the vehicle group reached 1000 mm^3. […] Results are summarized in Tables 21-25 (multi-dose) and Table 26 (single dose). (NT=not tested in the particular experiment shown).

MCF7/PRLR tumors = test: MCF7/PRLR breast tumor xenograft, tumor volume (Example 13); type: in vivo, NCr nude mice
Description: After MCF7 or MCF7/PRLR tumors reached an average volume of ˜150-200 mm^3 (14-16 days post implantation), mice were randomized into treatment groups (n=8-9 mice/group) and received a single dose or three once-weekly doses of H1H6958N2-DM1, control ADC, or vehicle control, administered systemically by intravenous tail-vein injection. Tumor size and body weight were measured in vivo twice per week throughout the duration of the study.
The T47Dv11 model was used to assess the activity of H1H6958N2-DM1 in a model with significant levels of endogenous PRLR. […] Initially, 10×10^6 parental T47D cells were implanted subcutaneously (SC) into the left flank of female C.B.-17 SCID mice (Taconic, Hudson N.Y.). Tumors were supplemented with a 90-day release 1.7 mg estrogen pellet (Innovative Research America). Where T47D tumors were observed, they were excised and cut into 3 mm fragments and subsequently implanted into the left flank of separate female C.B.-17 SCID mice. Subsequent passaging was performed until a large tumor was disaggregated into a single cell suspension. The cells (named T47Dv11) from this tumor were then cultured in vitro and expanded. […] For efficacy studies, mice were implanted with 7.5×10^6 T47Dv11 cells into the left flank of female C.B.-17 SCID mice supplemented with a 90-day release 0.72 mg/pellet estrogen pellet. For MCF7 and MCF7/PRLR tumor xenografts, 2×10^7 MCF7/PRLR cells were implanted SC into the left mammary fat pad of female NCr nude mice (7-8 weeks old) supplemented with 90-day release 0.72 mg/pellet estrogen pellets. Tumors were measured with calipers twice a week for the duration of each study. Tumor volume was calculated using the formula TV=(length×width^2)/2.

[1] = PC3/PRLR tumors TRIAL #2, multi-dose 15 mg/kg, Day 55
[2] = PC3/PRLR tumors TRIAL #1, multi-dose 15 mg/kg, Day 63
[3] = PC3/PRLR tumors TRIAL #2, multi-dose 5 mg/kg, Day 55

Molecule	Average Tumor Growth Inhibition (%) (PC3/PRLR tumors; [1])	Final Tumor size mm^3 (mean ± SEM) (PC3/PRLR tumors; [1])	Average Tumor Growth Inhibition (%) (T47D#11 tumors; multi-dose 15 mg/kg)	Final Tumor size mm^3 (mean ± SEM) (T47D#11 tumors; multi-dose 15 mg/kg)	Average Tumor Growth Inhibition (%) (PC3/PRLR tumors; [2])	Final Tumor size mm^3 (mean ± SEM) (PC3/PRLR tumors; [2])	other results
H1H6782P: fully human anti-PRLR antibody, non-blocking; HCVR/LCVR SEQ ID NOs 66/74 (antibody, V domains shown) VH: EVQLVESGGGLVQPGRSLRLSCAASGFTFDDYAMHWVRQAPGKGLEWVSGIIWNSGHIGYGDSVKGRFTISRDNAKKSLYLQMNSLRAEDTALYYCARDSGRYQSYFDYWGQGTLVTVSS VL: DIQMTQSPSTLSASVGDRVTITCRASHIISSWLAWYQQKPGKAPKVLIFKASSLESGVPSRFSGSGSGTEFTLTISSLQPDDFATYYCQQYNTYSRTFGQGTKVEIK	6%	1154 ± 212 mm^3	−29%	1537 ± 111 mm^3			
H1H6765P: fully human anti-PRLR antibody, human IgG1 Fc; HCVR/LCVR SEQ ID NOs 18/26 (antibody, V domains shown) VH: EVQLVESGGGVVRPGGSLRLSCVGSGFSFDDHGMNWVRQGPGKGLEWVSGFNWNGGSTNYAESVKGRFTISRDNARNSLFLQMNSLRAEDTALYYCVRGRSGWFNDAFDVWGPGTMVTVSS VL: EIVLTQSPGTLSLSPGERATLSCRASQTINSNYLAWYRQKPGQTPRLLIYGTSSRATGIPDRFSGSGSGTDFSLTISRLEPEDFAVFYCQQYAGLPTFGPGTKVDIK		1208 ± 72 mm^3	−3%	1278 ± 164 mm^3			
H1H6958N2-DM1: anti-PRLR antibody H1H6958N2 conjugated to the maytansinoid DM1 through an SMCC linker (conjugate) VH: QVQLVESGGGVVQPGRSLRLSCGASGFTFRNYGMQWVRQGPGKGLEWVTLISFDGNDKYYADSVKGRFTISRDNSKNTLFLQMNSLRTEDTAVYYCARGGDFDYWGQGTLVTVSS VL: DIQMTQSPSSLSASVGDRVTITCRASQDIRKDLGWYQQKPGKAPKRLIYAASSLHSGVPSRFSGSGSGTEFTLTISSLQPEDFATYYCLQHNSYPMYTFGQGTKLEIK	94%	230 ± 22 mm^3	112%	44 ± 5 mm^3	46%	808 ± 83 mm^3	Final Tumor size mm^3 (mean ± SEM) (PC3/PRLR tumors; PC3/PRLR tumors TRIAL #1, multi-dose 5 mg/kg, Day 63): 1247 ± 171 mm^3; Average Tumor Growth Inhibition (%) (PC3/PRLR tumors; [3]): 61%; Final Tumor size mm^3 (mean ± SEM) (PC3/PRLR tumors; [3]): 566 ± 63 mm^3; PC3/PRLR tumor growth (PC3/PRLR tumors; multi-dose, especially at 15 mg/kg): demonstrated inhibition of tumor growth; Average Tumor Growth Inhibition (%) (T47D#11 tumors; multi-dose 5 mg/kg): 102%; Final Tumor size mm^3 (mean ± SEM) (T47D#11 tumors; multi-dose 5 mg/kg): 168 ± 19 mm^3; T47D #11 tumor growth (T47D#11 tumors; repeat dosing 5 and 15 mg/kg): potently inhibited tumor growth; antitumor efficacy (MCF7/PRLR tumors; single dose 10 and 15 mg/kg): eradication of the tumors; antitumor efficacy (MCF7/PRLR tumors; single dose at 2.5-15 mg/kg): significant antitumor efficacy observed at all doses; antitumor efficacy (MCF7/PRLR tumors; three once-weekly doses of 5 and 15 mg/kg): tumor eradication
H1H6958N2: anti-PRLR antibody, receptor blocking, human IgG1 Fc form of H2M6958N2 of Table 1; HCVR/LCVR SEQ ID NOs 290/298 (antibody, V domains shown) VH: QVQLVESGGGVVQPGRSLRLSCGASGFTFRNYGMQWVRQGPGKGLEWVTLISFDGNDKYYADSVKGRFTISRDNSKNTLFLQMNSLRTEDTAVYYCARGGDFDYWGQGTLVTVSS VL: DIQMTQSPSSLSASVGDRVTITCRASQDIRKDLGWYQQKPGKAPKRLIYAASSLHSGVPSRFSGSGSGTEFTLTISSLQPEDFATYYCLQHNSYPMYTFGQGTKLEIK	28%	917 ± 253 mm^3	−3%	1259 ± 122 mm^3	−19%	1507 ± 106 mm^3	antitumor efficacy of controls (MCF7/PRLR tumors; MCF7/PRLR model, dose not stated): failed to induce any inhibition of tumor growth
H1H6953N: anti-PRLR antibody, human IgG1 Fc form of H1M6953N of Table 1; HCVR/LCVR SEQ ID NOs 274/282 (antibody, V domains shown) VH: EVQLLESGGGLVQPGGTLRLSCAASGFTFSAYAMSWVRQAPGKGLEWVSSINVRAGDTYYADSVKGRFTISRDNSKNTLFLLMNSLRAEDTAAYYCAKARYSSNWGFDFWGQGTLVTVSS VL: DIVMTQSPDSLTVSLGARTTINCQSSQTILHSSNNHNYLAWYQQKPGLPPKLLIYWSSTRESGVPDRFSGSGSGTDFTLTISSLQAEDVAIYYCQQYSNTPYTFGQGTKLEIN					0%	1306 ± 127 mm^3	
H1H6975N: anti-PRLR antibody, human IgG1 Fc form of H2M6975N of Table 1; HCVR/LCVR SEQ ID NOs 370/378 (antibody, V domains shown, human IgG1 Fc) VH: EVHLVESGGGLVQPGGSLRLSCAASGFTFSSYEMNWVRQTPGKGLEWISHISSRSVIIYYADSVKGRFTISRDNAKNSLFLQMNSLRAEDTAVYFCAGITIFGIPEYWGQGTLVTVSS VL: EIVLTQSPATLSLSPGERATLSCRASQSVSSYFAWYQQKPGQAPRLLIYDASSRATGIPTRFSGSGSGTDFTLTISSLEPEDFAVYYCQQRSSWPITFGQGTRLEIK					12%	1185 ± 97 mm^3	
